# Measurements: US20180371090A1
# pKd: −log10 of the molar value.
# Tests used:
# [1] = target: His-tagged human FcγRI (human) (UniProt P12314); test: SPR (Biacore T200), His-tagged receptor captured by anti-penta-His, antibody injected, 25 C
# [2] = target: His-tagged cynomolgus FcγRIIIA (cynomolgus) (UniProt Q8SPW2); test: SPR steady-state, His-captured receptor, 25 C
# [3] = target: His-tagged cynomolgus FcγRIIA (cynomolgus); test: SPR steady-state, His-captured receptor, 25 C
# [4] = target: His-tagged human FcγRIIIA (F176) (human) (UniProt P08637); test: SPR steady-state, His-captured receptor, 25 C
# Chain of His-tagged human FcγRIIIA (F176) (human) (P08637 17-208 limits assumed): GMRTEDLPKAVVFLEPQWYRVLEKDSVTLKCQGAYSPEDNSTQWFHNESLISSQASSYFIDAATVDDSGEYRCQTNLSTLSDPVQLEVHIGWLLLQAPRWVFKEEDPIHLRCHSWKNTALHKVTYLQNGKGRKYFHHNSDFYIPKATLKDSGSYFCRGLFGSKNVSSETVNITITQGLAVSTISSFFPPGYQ
# [5] = target: His-tagged human FcγRIIIA (V176) (human) (UniProt P08637); test: SPR steady-state, His-captured receptor, 25 C
# Chain of His-tagged human FcγRIIIA (V176) (human) (P08637 17-208 F176V limits assumed): as the sequence (P08637 17-208 limits assumed) above, with F160V counted along it
# [6] = target: His-tagged human FcγRIIIB (human) (UniProt O75015); test: SPR steady-state, His-captured receptor, 25 C
# Chain of His-tagged human FcγRIIIB (human) (O75015 17-200 limits assumed): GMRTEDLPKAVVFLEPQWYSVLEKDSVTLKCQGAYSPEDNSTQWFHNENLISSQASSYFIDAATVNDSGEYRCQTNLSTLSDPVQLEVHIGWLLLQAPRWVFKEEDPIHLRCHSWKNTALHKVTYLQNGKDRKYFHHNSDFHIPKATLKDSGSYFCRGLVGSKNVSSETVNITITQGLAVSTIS
# [7] = target: His-tagged cynomolgus FcγRIIB (cynomolgus); test: SPR steady-state, His-captured receptor, 25 C
# [8] = target: His-tagged human FcγRIIA (H131) (human) (UniProt P12318); test: SPR steady-state, His-captured receptor, 25 C
# Chain of His-tagged human FcγRIIA (H131) (human) (P12318 36-218 limits assumed): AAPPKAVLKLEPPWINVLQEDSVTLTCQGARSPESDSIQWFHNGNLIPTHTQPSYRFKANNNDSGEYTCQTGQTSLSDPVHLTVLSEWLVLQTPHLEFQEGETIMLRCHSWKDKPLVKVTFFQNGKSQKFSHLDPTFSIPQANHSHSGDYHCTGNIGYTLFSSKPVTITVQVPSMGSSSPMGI
# [9] = target: His-tagged human FcγRIIA (R131) (human) (UniProt P12318); test: SPR steady-state, His-captured receptor, 25 C
# Chain of His-tagged human FcγRIIA (R131) (human) (P12318 36-218 H167R limits assumed): as the sequence (P12318 36-218 limits assumed) above, with H132R counted along it
# [10] = target: His-tagged human FcγRIIB (human) (UniProt P31994); test: SPR steady-state, His-captured receptor, 25 C
# Chain of His-tagged human FcγRIIB (human) (P31994 46-217 limits assumed): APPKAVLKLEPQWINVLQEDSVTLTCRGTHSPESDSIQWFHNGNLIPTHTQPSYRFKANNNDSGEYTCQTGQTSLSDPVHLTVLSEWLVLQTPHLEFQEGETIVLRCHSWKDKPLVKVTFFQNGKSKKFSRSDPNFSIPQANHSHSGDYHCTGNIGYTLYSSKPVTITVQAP
# Chain of His-tagged human FcγRI (human) (P12314 16-288 limits assumed): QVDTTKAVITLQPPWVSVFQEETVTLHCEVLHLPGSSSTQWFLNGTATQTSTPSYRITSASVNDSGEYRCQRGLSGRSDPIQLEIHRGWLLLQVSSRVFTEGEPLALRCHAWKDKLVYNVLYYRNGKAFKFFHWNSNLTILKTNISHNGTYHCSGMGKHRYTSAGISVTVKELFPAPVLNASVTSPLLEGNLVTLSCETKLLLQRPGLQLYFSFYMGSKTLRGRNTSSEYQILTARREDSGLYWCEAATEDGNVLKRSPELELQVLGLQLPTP
# Chain of His-tagged cynomolgus FcγRIIIA (cynomolgus) (Q8SPW2 17-208 limits assumed): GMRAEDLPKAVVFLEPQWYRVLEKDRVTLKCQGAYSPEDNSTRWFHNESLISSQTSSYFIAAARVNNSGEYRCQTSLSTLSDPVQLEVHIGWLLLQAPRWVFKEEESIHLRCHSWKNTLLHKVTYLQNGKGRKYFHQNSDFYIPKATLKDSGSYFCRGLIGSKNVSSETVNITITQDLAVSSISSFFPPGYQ
pKd [1],T1/2 [1] [min],pKd [2],pKd [3],pKd [4],pKd [5],pKd [6],pKd [7],pKd [8],koff [1] [s⁻¹],kon [1] [M⁻¹ s⁻¹],pKd [9],pKd [10],Substance
8.37,15,6.22,5.38,5.89,5.82,5.64,5.38,5.96,,,,,Wild-type IgG1 Isotype Control (antibody)
7.86,5,5.24,4.71,4.59,5.00,,5.02,4.92,0.00236,171000,5.00,5.01,"Wild-type IgG4 ""CPPC"" Isotype Control (antibody)"
